Laboratory results reported in patent US20090269831A1 (REGENTS OF THE UNIVERSITY OF MINNESOTA, published 2009).
Where a chain is given by its changes, count along the chain named. In names and notes the source's numbering stands.

B1: A3G198-384 (enzyme)
chain: DPPTFTFNFNNEPWVRGRHETYLCYEVERMHNDTWVLLNQRRGFLCNQAPHKHGFLEGRHAELCFLDVIPFWKLDLDQDYRVTCFTSWSPCFSCAQEMAKFISKNKHVSLCIFTARIYDDQGRCQEGLRTLAEAGAKISIMTYSEFKHCWDTFVDHQGCPFQPWDGLDEHSQDLSGRLRAILQNQEN
notes: also called CTD
B2: A3G-2K3A (enzyme)
chain: B1 chain with L37K, C46A, F113K, C124A, C159A
notes: released from the GST fusion with PreScission protease

Legend:
[1] = target: the molecule itself; test: size exclusion, Superdex 75 (self-association)
Procedure: GST-based constructs were expressed in E. coli strain BL21 DE3 RIL (Stratagene). Unlabeled proteins were produced by overnight expression at 17° C. in LB medium containing 1 mM IPTG and 200 μg/mL ampicillin. Isotope-labeled proteins were produced by overnight expression at 17° C. in M9 supplemented with ¹⁵NH₄Cl, ¹³C-labeled D-glucose and ²H water as previously described by Devany et al., Protein Sci. 13, 2252-259 (2004). Proteins were purified by sonicating cell pellets in lysis buffer [100 mM NaCl, 50 mM Na₂HPO₄/NaH₂PO₄ (pH7.0), protease inhibitor (Roche)], separating the soluble (supernatant) and insoluble (pellet) fractions by centrifugation (12,110 g, 20 min, 4° C.), binding to glutathione sepharose (GE healthcare), washing with lysis buffer and eluting with PreScission protease (GE Healthcare) in 1 mM DTT, 50 mM Na₂HPO₄/NaH₂PO₄ [pH7.4] and, finally, concentrating with Centricon filters (Millipore). Solubility was monitored by SDS PAGE, coomassie blue staining and/or immunoblotting as discussed above. […] GST and lysozyme were purchased from Sigma.

[2] = target: the molecule itself; test: sedimentation velocity analytical ultracentrifugation (self-association)
Procedure: Sedimentation Velocity Analytical Ultracentrifugation Experiments. A3G-2K3A was diluted to 0.15, 0.4, 0.8 or 1.2 mg/ml in a buffer containing 50 mM Na₂HPO₄/NaH₂PO₄ [pH7.4], 0.005% tween 20, 5 mM dithiothreitol and 50 μM ZnCl₂. Samples were then sedimented using a 4-hole rotor at 20° C. and 55,000 rpm. The rotor and cells were preequilibrated at 20° C. and the samples were kept on ice during protein preparation and dilution. Synthetic boundary cells were loaded with 430 μL of buffer and 420 μL of the appropriate sample solution. The cells were placed in the rotor and accelerated to 24,000 rpm while monitoring the transfer of the excess buffer in each cell. Subsequently, the rotor was stopped and then gently inverted to thoroughly mix the contents of the cells. The rotor was then equilibrated under vacuum at 20° C. and after a period of ˜1 hour at 20° C. the rotor was accelerated to 55,000 rpm. Interference scans were acquired at 1 minute intervals for 6 hours. The data for each loading concentration was analyzed using the program DcDt+ (version 2.0.7). See Philo, Anal. Biochem. 354, 238-246 (2006); and Philo, Anal. Biochem. 279, 151-163 (2000). The complete data set for A3G-2K3A was analyzed using Sedphat v4.4b using the model of a hybrid local continuous distribution and global discrete species. Schuck, Anal. Biochem. 320, 104-124 (2003). […]

Protein	binding result [1]	binding result [2]
B1	no binding (tested: 1 mg (approx. 1 mL))	
B2		no binding (tested: 0.15, 0.4, 0.8 or 1.2 mg/ml)
